{"source": "paper PMC12003327", "key": {"[1]": {"target": "recombinant human integrin alphaV beta3 (αvβ3) (human) (UniProt P06756)"}, "[2]": {"target": "recombinant human integrin alphaV beta3 (αvβ3) (human) (UniProt P06756)", "remark": "listed apart in the source"}, "[3]": {"target": "recombinant human integrin alphaV beta3 (αvβ3) (human) (UniProt P06756)", "remark": "listed apart in the source"}}}
{"substance": "recombinant trimeric SARS-CoV-2 Omicron BA.1 spike protein (from UniProt P0DTC2 14-1273) (natural protein)", "values": [{"measurement": "ERK phosphorylation in HL-mECs after infection with authentic Omicron BA.1 (western blot, against not infected cells) (fold increase)", "setting": "[1]", "value": 3.5}, {"measurement": "inhibition of Omicron BA.1-induced ERK activation in HL-mECs pretreated with Heparinase III", "setting": "[1]", "value": 56, "unit": "%"}, {"measurement": "inhibition of Omicron BA.1-induced ERK activation in HL-mECs pretreated with mAb anti-αvβ3", "setting": "[1]", "value": 44, "unit": "%"}, {"measurement": "inhibition of Omicron BA.1-induced ERK phosphorylation in HL-mECs pretreated with sodium chlorate", "setting": "[1]", "value": 53, "unit": "%"}, {"measurement": "inhibition of FAK activation by Omicron BA.1 in HL-mECs pretreated with Heparinase III", "setting": "[2]", "value": 48, "unit": "%"}, {"measurement": "inhibition of FAK activation by Omicron BA.1 in HL-mECs pretreated with mAb anti-αvβ3", "setting": "[2]", "value": 54, "unit": "%"}, {"measurement": "inhibition of FAK activation by Omicron BA.1 in HL-mECs pretreated with sodium chlorate", "setting": "[2]", "value": 48, "unit": "%"}, {"measurement": "inhibition of pSrc activation by Omicron BA.1 in HL-mECs pretreated with Heparinase III", "setting": "[2]", "value": 66, "unit": "%"}, {"measurement": "inhibition of pSrc activation by Omicron BA.1 in HL-mECs pretreated with mAb anti-αvβ3", "setting": "[2]", "value": 56, "unit": "%"}, {"measurement": "inhibition of pSrc activation by Omicron BA.1 in HL-mECs pretreated with sodium chlorate", "setting": "[2]", "value": 65, "unit": "%"}, {"measurement": "phosphorylation of FAK in HL-mECs 1 h after infection with authentic Omicron BA.1 (western blot, against not infected cells) (fold increase)", "setting": "[3]", "value": 2.3}, {"measurement": "phosphorylation of Src in HL-mECs 1 h after infection with authentic Omicron BA.1 (western blot, against not infected cells) (fold increase)", "setting": "[3]", "value": 1.8}]}
